From patent publication US7303752B2, “Hookworm vaccine” (The George Washington University, priority 2001, dated 2007)
Several values for one entry are separate records, joined by “and”; a condition that tells them apart may be missing. Identical values can stand only once.

B1: Ac-TMP: A. caninum putative tissue inhibitor of metalloproteinase, SEQ ID NO: 12; E. coli fusion protein (protein, listed as Ancylostoma caninum)
chain: MRVAIVFIACFAVAHACKCEKKPRPPLEKLLCQSQFVTHAKVTKKRIDGYFIYYDLEHKEVYKPKDRSIPIELFSWREKENCGMPDLEEGKEYLIGGKVTDYGDGDLVISVSRCDLLRNWTDVSGEEKKLLGTFKCENQS
modifications: E. coli fusion partner
notes: E. coli fusion protein
B2: Ac-API: A. caninum aspartyl protease inhibitor antigen, SEQ ID NO: 38 (protein, listed as Ancylostoma caninum)
chain: MKLLALSALFALAFAAPRDKRLAVSTITVTGGLGLSTGCVVTGNVLYANGFRVREITPSEQQELVKYQNDVAEYKTALKQAIKEREEKIRARLAGKKVKAVESTNQEDLPKPPQKPSFCTPEDTTQFFFEGCMIQNNKIYVGNTFARDLTQPEISELKEFEKKFKVYQDYVQKQAEQQVNSLFGGSDFFSALFSGGETSKPSTTTVAPELPEDAPEQPPTPNFCTRII
B3: Ac-MEP-1: A. caninum metalloendopeptidase antigen, SEQ ID NO: 14 (protein, listed as Ancylostoma caninum)
chain: MAKLLEVTTGLVVLLGVLGVISVVFNVLTWLKLNENKDDSSPAPKIWNVGEQDNTPVLTNLLVLEKEELAAKLKKTPYEEVDEQTVRQSSVMKLRNIKNALFTIEPVASALPPLRVNDPKYCPSYGEPDKKYAYQEAASYLLSGLDQTVDPCEDLYAFTCNTYLRNHNATDIGVNRIGTYKDAQDDVNAEIVEALEEVNVSDTKWSETERLVKATLFTCVHHTRARKPIDNSKNVLIEMRDLFGGIPFLNHTLKKDIDFFDIMGKFEQNHAMGTLLGAMVSVDFKNVNKHSLFLSQPYLPMARDFYVFPQHTKMVENRVSLINSVLRSFAEAVLDDPSPYLDLMSRSARDVVKLEMQIAMASWPESELRNYAQQHNPRTLNQLKAAYPAIKWDSYFNALLSSVQGVDMNRQNIILTQPSYFGWLNALFNGGADDKTIANYLLVHLILEEADFLGGALKTMVQKSDYVPYALGRGKGVTRVGQQLTRSHDDTVEDANIQCLNSMMTYMPFGPGYVYVKSRKNRDDVVKDIEHQTELVFKNFVNMIGNLNWMTDASLELAMEKADTMVKNYGWPKDLFGNFRDSSKIDAYHKKDYGNIINLYKENITHNYYHIRRTMIKGYSNHESLRLLTEAPKRDHFLLSPALVNAWYIPERNSIAFPYAFWNPPYYNYEYPQACNYAGQGGTAGHELVHGFDDQGVQFAADGSLSDCTWIECGWLEEKSKKGFSDMAQCVVTQYSTQCCPQTGGVTHCANGATTQGENIADLGGQLAAYRAYREYITKERGEEEKRLPGLEQYTPNQIFWITYGYSWCMSQTDSSLIRQLLTDVHSPGSCRVNQVMQDIPEFALDFGCTMGQKMYPEPEQRCPVWVAE

Assays:
Type in all cases: in vivo, dog
A. caninum [1] = test: Canine vaccine trial with Ac-TMP, Ac-AP, Ac-APR-1, oral challenge with 400 A. caninum L3
Text: Study dogs and animal husbandry: Following protocol approval by The George Washington University Institutional Animal Care and Use Committee (IACUC), purpose bred, parasite naïve, male beagles 8±1 week of age were purchased, identified by ear tattoo, and maintained in the AALAC (Association for Assessment and Accreditation of Laboratory Animal Care) accredited George Washington University Animal Research Facility. The dogs were housed in a room dedicated for the study, at a room temperature of 70±4° F., with 10-15 air changes per hour comprised of 100 percent fresh air, and 12 hr light cycles alternating with 12 hr dark cycles. The airflow and timer functions were monitored daily. The dogs were fed on a diet of Teklad Certified Dog Chow #8727, supplemented with a canned soft diet in the event of anorexia. The drinking water was piped from a filter plant and delivered via automatc water system; water analysis was performed by the U.S. Army Corps of Engineers. Water from the facilities automatic system is cultured for bacteria and fungi annually. The pens were flushed daily and sanitized every two weeks. Dogs within a given study group were permitted to live together and socialize prior to the hookworm larval challenge, but were caged individually post-infection. All dogs were quarantined for approximately one week before beginning the vaccine trial. Prior to vaccination a complete blood count (CBC), serum chemistries, and a pre-vaccination serum sample were obtained.
Vaccine study design and sample size: The vaccine trial was designed to test three different antigens, each formulated with alum, as well as an alum adjuvant control. A total of 24 dogs were randomly assigned into four groups comprised of 6 dogs each. The canine sample size was selected on the ability to detect a 40-50 percent reduction in the numbers of adult hookworms in the small intestines of the vaccinated group relative to control dogs, at a statistical power of 80 percent (alpha=0.05, two-tailed). The data were derived from the mean and standard deviation of adult hookworms previously recovered from age-matched dogs infected with 400 A. caninum L3 (Hotez et al, 2002).
Recombinant Antigens: Each group of 6 dogs was vaccinated with recombinant hookworm proteins expressed as fusion proteins either in Escherichia coli or in an insect cell line with baculovirus. Ac-AP (Cappello et al, 1995; 1996) and Ac-TMP, were expressed in E. coli as pET 28 (Novagen) fusion proteins containing a polyhistidine tag (Cappello et al, 1996). Ac-APR-1 (Harrop et al, 1996) was expressed in a baculovirus pBacPAK6 vector (Clontech), modified to contain a polyhistidine-encoding sequence and additional restriction enzyme sites (Brindley et al, 2001). Recombinant Ac-AP and Ac-TMP fusion proteins were then purified by nickel affinity chromatography, followed by a second step of purification. In the case of Ac-AP (Cappello et al, 1995; 1996), the recombinant protein was purified by mono-S (Amersham-Pharmacia) ion exchange chromatography, while Ac-TMP (Zhan et al, 2002) was purified by superdex 75 (Amersham-Pharmacia) gel filtration chromatography. Ac-APR-1 (Harrop et al, 1996) was purified by substrate affinity chromatography using pepstatin agarose (Brindley et al, 2001). The antigen stock protein concentration was determined by Pierce Micro BCA assay (Pierce Chemicals) or by the absorbance of the sample at […] using an extinction coefficient that was calculated from the deduced amino acid composition of the fusion protein. The amount of alum adsorbed protein in each dose of antigen was measured by the Pierce Micro BCA assay using a bovine serum albumin standard. The relative purity of each of the antigens relative to contaminating E. coli or insect cell proteins was determined by analysis on sodium dodecyl sulfate polyacrylamide gel electrophoresis (SDS-PAGE). […]

[2] = tested on: antibody to recombinant proteins; test: Pre-challenge antibody titer ELISA, trial with Ac-ASP-2, Ac-API, Ac-MEP-1, Ac-APR-1 in AS03; settings: for antibody response, in words: AS03
Description: (§1) The vaccine trial was designed to test Ac-API, Ac-ASP-2, Ac-MEP-1, Ac-APR-1 formulated with Adjuvant System 03 (AS03) obtained from GlaxoSmithKline (GSK). The rationale for selecting AS03 as an adjuvants is discussed elsewhere (Stoute et al, 1997). The ten purpose bred beagles were randomized into five arms: immunized with the adjuvant-formulated recombinant proteins or adjuvant only (control). To make six doses of antigen formulated with AS03, […] of recombinant protein (0.3 ml of antigen at a concentration of 2 mg.ml^−1) was mixed with 1.2 ml of 20 mM Tris-HCl, 0.5 M NaCl, pH 7.9 and 1.5 ml of AS03; the contents of the tube were vortex mixed for 30 seconds then shaken at low speed for 10 minutes. Dogs were immunized with 100 g of formulated antigen in a final volume of 0.5 ml. ASO3 only control was prepared as described above, with PBS included instead of antigen. Formulation of GSK adjuvants were conducted according to the protocol provided by GSK. All injections were performed intramuscularly (IM). Test and control articles were prepared on the day of injection. All animals received 4 immunizations approximately 3 weeks apart.
Beagles were immunized with formulated Ac-ASP-2 as previously described (Loukas et al, 2004). The vaccines were administered IM three times beginning at age 62+/−4 days. Boosts were administered to the dogs at intervals of 21 days. Blood was drawn at least once every 21 days and serum was separated from cells by centrifugation. Each animal's specific antibody response was evaluated by indirect ELISA using serum taken prior to the infective challenge (Loukas et al, 2004). Recombinant Ac-ASP-2 was coated onto microtiter plates at a concentration of 5 g.ml^−1. Dog sera were titrated between 1:100 and 1:2×10^6 to determine endpoint titers. Anti-canine IgG1, IgG2 and IgE antibodies conjugated to horse-radish peroxidase (Bethyl Laboratories) were used at a dilution of 1:1,000.

A. caninum [3] = test: Canine vaccine trial with Ac-ASP-2, Ac-API, Ac-MEP-1, Ac-APR-1 in AS03, footpad challenge with 500 A. caninum L3; settings: for worm burdens, Maximum / worm burdens, Minimum / worm burdens, Mean / worm burdens, Median: 5 dogs; for worm burdens, Mean: ASO3 control 203.8000; for worm burdens, Median: ASO3 control 215.0000; for worm burden, Colon, Male, Average / worm burden, Colon, Female, Average / worm burden, Intestine, Female, Average / worm burden, Intestine, Male, Average / worm burden, Total, Average: group average; for worm burden, Colon, Male, Average: AS03 control 5; for worm burden, Colon, Female, Average: AS03 control 9; for worm burden, Intestine, Female, Average: AS03 control 95; for worm burden, Intestine, Male, Average: AS03 control 96; for worm burden, Total, Average: AS03 control 204; for worm burden, Colon, Female / worm burden, Colon, Male / worm burden, Intestine, Female / worm burden, Intestine, Male / worm burden, Total: individual dogs
Description: as §1, with “The ten purpose bred beagles were randomized into five arms: immunized with the adjuvant-formulated recombinant proteins or adjuvant only (control).” left out
A. caninum larvae were cultured from eggs collected in the feces of infected dogs. All hookworms in the infective challenge were approximately equal age (17±7 days post hatching). The species identity of the infective larvae were validated using PCR. All dogs were infected by the footpad method with the same dose of 500 L3 of A. caninum (Zhan et al, 2001). Larval challenge occurred on one of three consecutive days (at age 120+/−9 days). Fourteen-sixteen days after the final immunization, dogs were anesthetized using a combination of ketamine and xylazine (20 mg.kg^−1 and 10 mg.kg^−1 respectively), and 500 A. caninum L3 in a final volume of […] were applied to the footpad.

Molecule	antibody response, in words [2]	Pre-challenge antibody titer, IgG1, GEOMEAN ([2]; geometric mean of group)	Pre-challenge antibody titer, IgG2, GEOMEAN ([2]; geometric mean of group)	Pre-challenge antibody titer, IgG1 ([2]; individual dogs)	Pre-challenge antibody titer, IgG2 ([2]; individual dogs)	worm burdens, Maximum (A. caninum [3])	worm burdens, Minimum (A. caninum [3])	worm burdens, Mean (A. caninum [3])	worm burdens, Median (A. caninum [3])	worm burden, Colon, Male, Average (A. caninum [3])	worm burden, Colon, Female, Average (A. caninum [3])	worm burden, Intestine, Female, Average (A. caninum [3])	worm burden, Intestine, Male, Average (A. caninum [3])	worm burden, Total, Average (A. caninum [3])	worm burden, Colon, Female (A. caninum [3])	worm burden, Colon, Male (A. caninum [3])	worm burden, Intestine, Female (A. caninum [3])	worm burden, Intestine, Male (A. caninum [3])	worm burden, Total (A. caninum [3])	further results
B1	–	–	–	–	–	–	–	–	–	–	–	–	–	–	–	–	–	–	–	% Decrease of adult hookworms in the small intestines relative to alum-injected dogs (A. caninum [1]; group): 10.8%; % Increase of adult hookworms in the colons relative to alum-injected dogs (A. caninum [1]; group): 500%; adult A. caninum hookworms in the colons, Median (A. caninum [1]; group median, alum control 4): 32; adult hookworms in the small intestines, Median (A. caninum [1]; group median, alum control 180): 161; ratio of adult hookworms in the small intestine relative to the colon (A. caninum [1]; vaccinated group, alum-injected dogs 43.9): 6.6
B2	robust	3,612	32,511	4,500 (4×) and 1,500	40,500 (4×) and 13,500	237.00	146.00	187.800	167.0000	5	12	83	87	188	3 and 1 and 12 and 24 and 21	3 and 0 and 2 and 9 and 10	86 and 83 and 66 and 91 (2×)	54 and 83 and 80 and 105 and 115	146 and 167 and 160 and 229 and 237	Pre-challenge antibody titer, IgE, GEOMEAN ([2]; geometric mean of group): 100; Pre-challenge antibody titer, IgE ([2]; individual dogs): 100; fecal eggs (fecundity), in words (A. caninum [3]; relative to the control group): significant reduction in fecal eggs; worm burden, in words (A. caninum [3]; versus AS03 control): no remarkable reduction in worm burden
B3	weak	100	1,204	100	1,500 (4×) and 500	293.00	109.00	183.4000	129.0000	3	6	91	87	183	0 and 2 and 7 and 9 and 12	0 and 1 and 2 and 5 and 8	64 and 58 and 153 and 130 and 50	65 and 47 and 131 and 124 and 49	129 and 108 and 293 and 268 and 119	worm burden reductions in three out of the five vaccinated dogs (A. caninum [3]; versus control mean): exceeded 36%
